Experiment: soluble on expression in E. coli; label from the status in PepcDB or PDB records

| Sequence | soluble on expression in E. coli |
| --- | --- |
| MALPVTSSANQPTGTNNVAATKCKGCFCPGNPCQLCRLPPHTDDPIPENEPETCRLIREAVPPASFQPGENEYFANLDKATIQCIRSGDVIPNTRRVPGYPGRVYCKPGLPALGAH | not soluble |
| MGQIQYSEKYFDDTFEYRHVVLPPEVAKLLPKNRLLSENEWRAIGVQQSRGWVHYAVHRPEPHIMLFRRPLNYQQQQENQAQNMLVK | soluble |
| LLSPPIALKPLDSSAKWRIIYWNPNGCDKTCLKQLNMLGRVRLSFGRKLYQVDEWLLLSNKDSLIAEELKPILKEQDIHVAALSLTEMSKLSTLYPEAKIFIANPDNYLILSYQPGCNPGDIYKDLKLLLNTTE | not soluble |
| MGSSHHHHHHSSGLVPRGSHMNSILITGCNRGLGLGLVKALLNLPQPPQHLFTTCRNREQAKELEDLAKNHSNIHILEIDLRNFDAYDKLVADIEGVTKDQGLNVLFNNAGIAPKSARITAVRSQELLDTLQTNTVVPIMLAKACLPLLKKAAKANESQPMGVGRAAIINMSSILGSIQGNTDGGMYAYRTSKSALNAATKSLSVDLYPQRIMCVSLHPGWVKTDMGGSSAPLDVPTSTGQIVQTISKLGEKQNGGFVNYDGTPLAW | soluble |
| MLREFSFYDVPPAHVPPVSEPLEIACYSLSRDRELLLDDSKLSYYYPPPLFSDLNTGFPNRFHPPKSDPDPISIVKDVLMTKGIQMNSSFLTWRGLITKIMCAPLDPRNHWETYLVMDPTSGIIMMEERTRSETSYANQDRMCYWGYKFEAISTLPEIWDACSRDQIEQRDNQDVVPDEQYCSIVKINIGKSKLILAGEVDCIWDKKPCSAKESDVHSDDGTIEEDASNAENPNLHYVELKTSKKYPLENYGMRKKLLKYWAQSFLLGIGRIIIGFRDDNGILIEMKELFTHQIPKMLRPYFKPNDWTPNRLLVVLEHALEWIKQTVKQHPPSTEFTLSYTGGSKLVLRQIILEHHHHHH | soluble |
| MNADEWMTTFRENIAQTWQQPEHYDLYIPAITWHARFAYDKEKTDRYNERPWGGGFGLSRWDEKGNWHGLYAMAFKDSWNKWEPIAGYGWESTWRPLADENFHLGLGFTAGVTARDNWNYIPLPVLLPLASVGYGPVTFQMTYIPGTYNNGNVYFAWMRFQFL | soluble |
| VVMHPGFGAAALTGATGAAAAAAAAPTPQASPLGGRGTGASAEPATSAHSHGGGGGFGNVVSGTPMETTVSLPPQVSSHAGGRGASGSTDSSAEASTDHKRARTNNPGAGGARAAQAAALPSLDAVTSQQAAAAAGMAPAAGTLGAVPPAYPAVAVAPAAEVNGAMPYVDALTEQLRAVRLLQPTPPSSASSAPVRASAAAMADVTENVAVKAKGKKKGAAAAAAAQPPPPPLLPPAPRTEMDRRAALSGAAGAFMAACDEAVRELLLAMNFSDHDAEAIITGAAPPQLEHAASGVVSLVLRLKSSVLSHYIKHLNNAAARSQAAAASTAAVDGNAEDAADKHGAKATSAAKAPPAAGGGAGDAADQQLSTGEACLVQLQLYGGVGDALLQLLRSKLRGSACQLWALAHIVHPHPSRSEKESLAAYTGKSTKQVTDWFTNWRARHW | not soluble |
| MGSDKIHHHHHHMDSYFLGVSLESLKSLPRQTNHLRLGLAMWSHYHWQDSVYGSTTKQAERLARYATIFNTVEGNTSFYATPNAQTMMNWLRATPDDFRFTFKLPQTITHQKQLQHCQQELLQFFQVMSPLAEKTGLWKIQLPAHFGPENLPALAQFLNQVPQGLTYGVEVRHAAFFAKGEAERALNRLLMDKQVNRIIMDSRPLFALPPANEAIIDTHKKKPRVPVHAIATANTPVVRFIGQPDDACSCTTRAARR | not soluble |
| MSLALAVQNTDTIGVVVTDVTDAFFAILVKAVDKVAEAHQKTILIGIGYHHAEKEREAINTLLRKRCSSLVVHSKALSDDELSHYLNTVQGMVIINRVIKGYEHRCVSLDNQKGTYLATEMLIRYGHQHIAYIGSNHAIFDEVERRNGYLAALKDHNYLIIEQAITLNSPDFEGGEKAMIDLLSYNKNLTAVVAYNDSMAAGAISVLNENNISVPSQFSIIGFDDMPIARYLIPKLTTIRYPIDLMATYAAKLALSLTDEKIITPPVVQFNPTLVRRFSVESREGHHHHHH | soluble |
| MSKKIVLALGGNALGDDLAGQMKAVKITSQAIVDLIAQGHEVIVTHGNGPQVGMINQAFEAAAKTEAHSPMLPMSVCVALSQGYIGYDLQNALREELLSRGINKPVATLVTQVEVDANDPAFLNPTKPIGSFFTEQEAEQLTKQGYTLKEDAGRGYRRVVASPKPVDIIEKETVKALVDAGQVVITVGGGGIPVIREGNHLRGASAVIDKDWASARLAEMIDADMLIILTAVEKVAINFGKENEQWLDRLSLSDAERFIEEGHFAKGSMLPKVEAAASFARSRAGREALITVLSKAKEGIEGKTGTVICQ | not soluble |

— the DeepSol protein solubility set
